Target: intracellular Hsp90α (human) (human) (UniProt P07900)
Assay: cell-based or functional assay

## human PP5 in MCF-7 cells (overexpressed from pcDNA3.1/Myc-His(-) or endogenous, knocked down by siRNA) (from UniProt P53041 2-499)
  Thr90 phosphorylated Hsp90α (pT90-Hsp90α) level in MCF-7 cells on overexpression of human PP5 (fold of control): 0.55
  Thr90 phosphorylated Hsp90α (pT90-Hsp90α) level in MCF-7 cells on siRNA knock-down of human PP5 (fold of control): 1.58

Source: US20120064078A1
